The data set has as its target Hfq (His6-Hfq) (Histophilus somni strain 2336) (UniProt B0UTF5). As to the kind of experiment: EMSA. The settings on record: 10 mM Tris-HCl pH 7.4, 6% glycerol, 50 ug/ml BSA, 0.75 ug baker's yeast tRNA, 200 ng sRNA, 15 ul, room temperature 30 min; 6% native PAGE, 0.5x TBE, GelGreen …. A general note: Mobility shift assays separate free from complexed probe on a gel.

Hfq (His6-Hfq) (Histophilus somni strain 2336), sequence (B0UTF5 whole entry): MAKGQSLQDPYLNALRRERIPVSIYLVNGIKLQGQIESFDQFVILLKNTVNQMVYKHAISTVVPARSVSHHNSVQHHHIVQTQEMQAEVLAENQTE

Regarding “GGGAAUAAUACUGAAUAAUAGCUAUAUUACGACAAAGGGCGUAAGCUGCCACAAGUGCUACUUAAUCGGGCGUAAGCUGCCAUAAGUGCUACUUAAUUAGGUGCAAGCUACCGUAAGUGCUGAAGAAAAGAUGCCUAACGGCAUCUUUUUUUUGCU [HS9 sRNA]”, the binding result is recorded as “binds”.
“GGGCGCUGGCAGGCUAAUGACUAAUAAGAUGAUAACUAGGAUAAUGUAUUUAAACAUUGUGUUAUCCUCUUCAAAGUUGGGUGGAUUGAAGGUCGCACCCAGCUCGUUUCCGCAGUAUUGCGAAAACAAGAAUAUUAUAGGUCGUUUUAUAUUUCUGGUCAAGGAAUAAAACGACCUAUUUUUUAUUUGAC [HS97 sRNA]”: the binding entry is “binds”.

Values taken from publication PMC10204968.
